Experimental data as given in patent US20200024330A1.

Experiments:
Experiment in all cases: cell-based or functional assay
[1] = biological target: HIV-1 Env of isolate MGRM-C-027 (HIV-1)
[2] = biological target: HIV-1 Env of isolate QH0692.42 (HIV-1)
[3] = biological target: HIV-1 Env of isolate TRJ04551.58 (HIV-1)
[4] = biological target: HIV-1 Env of isolate 98CN009 (HIV-1)
[5] = biological target: HIV-1 Env of isolate MGRM-D-024 (subtype D), on pseudovirus (HIV-1)
[6] = biological target: HIV-1 Env of isolate 92UG114 (HIV-1)
[7] = biological target: HIV-1 Env of isolate 93UG077 (HIV-1)
[8] = biological target: HIV-1 Env of isolate MGRM-C-014 (HIV-1)
[9] = biological target: HIV-1 Env of isolate MGRM-F1-018 (subtype F), on pseudovirus (HIV-1)
[10] = biological target: HIV-1 Env of isolate MGRM-AE-001 (CRF01_AE), on pseudovirus (HIV-1)
[11] = biological target: HIV-1 Env of isolate MGRM-AE-004 (CRF01_AE), on pseudovirus (HIV-1)
[12] = biological target: HIV-1 Env of isolate MG RM-A-006 (HIV-1)
[13] = biological target: HIV-1 Env of isolate MGRM-F1-006 (subtype F), on pseudovirus (HIV-1)
[14] = biological target: HIV-1 Env of isolate MGRM-D-011 (HIV-1)
[15] = biological target: HIV-1 Env of isolate MGRM-D-019 (HIV-1)
[16] = biological target: HIV-1 Env of isolate MGRM-D-016 (HIV-1)
[17] = biological target: HIV-1 Env of isolate MGRM-G-028 (subtype G) (HIV-1)
[18] = biological target: HIV-1 Env of isolate MGRM-F1-016 (HIV-1)

Chain of 5345_I01 (PGT-137) (antibody) (VH): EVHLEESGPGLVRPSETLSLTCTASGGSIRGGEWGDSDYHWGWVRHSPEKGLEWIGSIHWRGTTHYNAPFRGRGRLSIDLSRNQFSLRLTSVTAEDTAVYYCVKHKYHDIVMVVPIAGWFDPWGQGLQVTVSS
Chain of 5345_I01 (PGT-137) (antibody) (VL): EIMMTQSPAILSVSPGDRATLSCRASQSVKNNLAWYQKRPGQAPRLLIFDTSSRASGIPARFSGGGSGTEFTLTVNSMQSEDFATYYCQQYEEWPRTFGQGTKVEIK
Chain of 5329_C19 (PGT-136) (antibody) (VH): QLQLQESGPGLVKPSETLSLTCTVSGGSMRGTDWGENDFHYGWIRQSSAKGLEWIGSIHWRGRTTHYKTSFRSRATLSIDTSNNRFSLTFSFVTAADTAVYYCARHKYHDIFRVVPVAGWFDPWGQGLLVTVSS
Chain of 5329_C19 (PGT-136) (antibody) (VL): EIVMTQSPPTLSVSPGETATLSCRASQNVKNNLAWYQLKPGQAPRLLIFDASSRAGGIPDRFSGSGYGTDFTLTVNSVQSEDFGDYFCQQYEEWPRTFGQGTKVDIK
Chain of PGT-142 (4995_E20) (antibody) (VH): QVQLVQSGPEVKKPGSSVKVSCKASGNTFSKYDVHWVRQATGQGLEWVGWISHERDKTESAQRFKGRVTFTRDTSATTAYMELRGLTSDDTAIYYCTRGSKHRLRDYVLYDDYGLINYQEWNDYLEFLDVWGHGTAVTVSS
Chain of PGT-142 (4995_E20) (antibody) (VL): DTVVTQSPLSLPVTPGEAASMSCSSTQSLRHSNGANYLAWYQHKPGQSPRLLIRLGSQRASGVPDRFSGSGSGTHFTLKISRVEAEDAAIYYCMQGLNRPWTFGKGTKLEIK
Chain of PGT-141 (4964_G22; 4993_K13) (antibody) (VH): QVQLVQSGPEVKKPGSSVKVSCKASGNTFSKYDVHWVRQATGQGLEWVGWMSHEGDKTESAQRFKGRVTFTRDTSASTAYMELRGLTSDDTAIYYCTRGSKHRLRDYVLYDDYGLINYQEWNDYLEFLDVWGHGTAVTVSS
Chain of PGT-143 (4980_N08) (antibody) (VH): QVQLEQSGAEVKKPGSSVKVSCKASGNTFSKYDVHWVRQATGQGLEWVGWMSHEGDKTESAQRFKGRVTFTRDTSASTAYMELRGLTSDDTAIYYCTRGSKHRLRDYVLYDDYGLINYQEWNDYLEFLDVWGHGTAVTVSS
Chain of PGT-143 (4980_N08) (antibody) (VL): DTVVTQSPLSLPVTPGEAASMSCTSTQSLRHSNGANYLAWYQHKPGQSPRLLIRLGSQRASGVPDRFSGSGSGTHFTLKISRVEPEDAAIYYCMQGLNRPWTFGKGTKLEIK
Chain of PGT-144 (4970_K22) (antibody) (VH): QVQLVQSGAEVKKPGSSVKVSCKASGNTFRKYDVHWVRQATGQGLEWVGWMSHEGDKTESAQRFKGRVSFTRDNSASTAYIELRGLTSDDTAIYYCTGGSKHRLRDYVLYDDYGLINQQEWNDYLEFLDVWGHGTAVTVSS
Chain of PGT-144 (4970_K22) (antibody) (VL): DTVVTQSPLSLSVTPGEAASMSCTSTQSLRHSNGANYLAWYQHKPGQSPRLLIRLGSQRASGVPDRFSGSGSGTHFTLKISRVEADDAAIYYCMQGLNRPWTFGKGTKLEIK

5329_C19 (PGT-136) (antibody)
IC50 [1]: > 50 µg/mL
IC50 [2]: > 50 µg/mL
IC50 [3]: > 50 µg/mL
IC50 [4]: 0.428 µg/mL
IC50, pseudovirus neutralization [5]: > 50 µg/mL
IC50 [6]: > 50 µg/mL
neutralization IC50 [7]: > 50 µg/mL
IC50 [8]: > 50 µg/mL
IC50, pseudovirus neutralization [9]: > 50 µg/mL
IC50, single-round pseudovirus neutralization [10]: > 50 µg/mL
IC50, single-round pseudovirus neutralization [11]: > 50 µg/mL
neutralization IC50 [12]: > 50 µg/mL
IC50, pseudovirus neutralization [13]: > 50 µg/mL
IC50 [14]: > 50 µg/mL
IC50 [15]: > 50 µg/mL
IC50 [16]: > 50 µg/mL

5345_I01 (PGT-137) (antibody)
IC50 [1]: > 50 µg/mL
IC50 [2]: > 50 µg/mL
IC50 [3]: > 50 µg/mL
IC50 [4]: 5.06 µg/mL
IC50, pseudovirus neutralization [5]: > 50 µg/mL
IC50 [6]: > 50 µg/mL
neutralization IC50 [7]: > 50 µg/mL
IC50 [8]: > 50 µg/mL
IC50, pseudovirus neutralization [9]: > 50 µg/mL
IC50, single-round pseudovirus neutralization [10]: > 50 µg/mL
IC50, single-round pseudovirus neutralization [11]: > 50 µg/mL
neutralization IC50 [12]: > 50 µg/mL
IC50, pseudovirus neutralization [13]: > 50 µg/mL
IC50 [14]: 6.3 µg/mL
IC50 [15]: > 50 µg/mL
IC50 [16]: > 50 µg/mL

PGT-121 (antibody)
IC50 (µg/mL), pseudovirus neutralization [7]: 0.019 µg/mL

PGT-122 (antibody)
IC50 (µg/mL), pseudovirus neutralization [7]: 0.084 µg/mL

PGT-141 (4964_G22; 4993_K13) (antibody)
neutralization IC50 [17]: 24.9 µg/mL

PGT-142 (4995_E20) (antibody)
neutralization IC50 [17]: 30.3 µg/mL

PGT-143 (4980_N08) (antibody)
neutralization IC50 [17]: 43 µg/mL

PGT-144 (4970_K22) (antibody)
neutralization IC50 [17]: > 50 µg/mL

PGV04 (antibody)
neutralization IC50 [17]: 0.352 µg/mL
IC50, pseudovirus neutralization [4]: 0.0125 µg/mL
IC50 (µg/mL), pseudovirus neutralization [6]: 0.461 µg/mL
IC50 [7]: 0.083 µg/mL
IC50 (µg/mL), pseudovirus neutralization [18]: 0.268 µg/mL
IC50 (µg/mL), pseudovirus neutralization [14]: 0.025 µg/mL
IC50 (µg/mL), pseudovirus neutralization [15]: 0.35 µg/mL
IC50 (µg/mL), pseudovirus neutralization [16]: 0.201 µg/mL

VRC01 (antibody)
neutralization IC50 [2]: 1.19 µg/mL
neutralization IC50 [3]: 0.06 µg/mL
neutralization IC50 [17]: 0.164 µg/mL
IC50, pseudovirus neutralization [18]: 0.517 µg/mL
IC50, pseudovirus neutralization [14]: 0.075 µg/mL
IC50, pseudovirus neutralization [15]: 0.119 µg/mL
IC50, pseudovirus neutralization [16]: 0.452 µg/mL
